Data taken from paper PMC9908077.

Legend:
Test in all cases: cross-linking; 1 mM BMH (cysteine-specific) added to living transfected HEK293T cells in PBS/5 mM EDTA, 1 hr at room temperature in the dark, stopped with DTT; lysates on 3-8% Tris-Acetate gels, western blot with anti-NC antibody
[1] = target: CANC (N-terminally 3xHA-tagged CANC Gag fragment with the C-terminal SP2-p6 extension, from pCANC) (HIV-1 NL4-3)
[2] = target: GCN4pAA-SP1-NC (HIV-1 NL4-3)
[3] = target: GCN4pII-SP1-NC (HIV-1 NL4-3)
[4] = target: ccHex2-SP1-NC (HIV-1 NL4-3)

“CANC (N-terminally 3xHA-tagged CANC Gag fragment with the C-terminal SP2-p6 extension, from pCANC) (domain or fragment)” was tested, and the stoichiometry N [1] was 8 to 10.

GCN4pAA-SP1-NC gave a stoichiometry N [2] of under 6.

GCN4pII-SP1-NC was tested, and the stoichiometry N [3] was under 6.

Substance ccHex2-SP1-NC has a stoichiometry N [4] of under 6.
